Reference: patent US20250144207A1, “COMBINATION THERAPY COMPRISING ANTI-CCR9 ANTIBODY AND VINCRISTINE FOR CANCER” (SUNROCK BIOPHARMA S.L., priority 2022, published 2025)

B1: SRB1 anti-CCR9 antibody (antibody, V domains shown)
VH: EVQLVESGGGLVKPGGSLRLSCAASGFTFSKFWMNWVRQAPGKGLEWVGEIRLKSNNYATHYAESVKGRFTISRDDSKNTLYLQMNSLKTEDTAVYYCTSDGWFAYWGQGTLVTVSS
VL: DVQMTQSPSSLSASVGDRVTITCRSSQSLVHSNGNTYLNWYQQKPGKAPKLLIYKVSNRFSGVPSRFSGSGSGTDFTLTISSLQPEDFATYYCSQSTHFPRTFGGGTKVEIK
notes: also called CCR9-targeted antibody (SRB1)

Experiments:
MOLT4-GFP xenografts = assay: Survival of NSG mice with MOLT4-GFP xenografts, SRB1 combined with chemotherapy agents; type: in vivo; settings: for Median survival: NSG mice, MOLT4-GFP i.v., SRB1 or isotype 4 mg/kg i.p. x4 weekly, vincristine 0.6 mg/kg i.v. day 5, dexamethasone 50 μg/mouse/dose days 5-9; for # censored subjects / # deaths: same survival study, 10 animals/group
CCR9+ lymphocyte = assay: Antibody mediated complement-dependent cytotoxicity (CDC); type: cell-based
Excerpt: The present inventors have, for example, observed antibody mediated complement-dependent cytotoxicity (CDC) utilizing anti-CCR9 antibodies such as “91R”, “92R” and “SRB1” described above.

CCR9 = biological target: T1, CCR9 (Homo sapiens, UniProt P51686); assay: CCR9 binding in the presence of CCL25, measured by flow cytometry
T1 sequence (P51686 1-369): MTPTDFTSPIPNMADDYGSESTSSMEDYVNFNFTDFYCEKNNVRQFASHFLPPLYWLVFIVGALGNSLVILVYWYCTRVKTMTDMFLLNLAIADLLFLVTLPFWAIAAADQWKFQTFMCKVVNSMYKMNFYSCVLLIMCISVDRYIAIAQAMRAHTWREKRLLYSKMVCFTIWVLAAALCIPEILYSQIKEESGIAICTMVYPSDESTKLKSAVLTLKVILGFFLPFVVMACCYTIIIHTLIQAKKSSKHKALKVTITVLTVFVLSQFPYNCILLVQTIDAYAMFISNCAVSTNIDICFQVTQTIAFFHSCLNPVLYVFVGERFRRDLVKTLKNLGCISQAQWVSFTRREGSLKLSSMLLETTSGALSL
Excerpt: Therefore, like “91R” and “92R”, the “SRB1” is preferred for use in the treatment of a condition in which CCL25 concentration may be elevated, including in the treatment of certain cancers as described in detail herein.

[1] = biological target: T2, CCR9 (C-C chemokine receptor type 9) (human, UniProt P51686 1-369, limits assumed); assay: CCR9 binding in the presence of CCL25; no protocol given
T2 construct: also called human chemokine receptor CCR9
T2 sequence (looked up): T1 sequence (P51686 1-369)

Molecule | Median survival (MOLT4-GFP xenografts) [days] | # censored subjects (MOLT4-GFP xenografts) | # deaths (MOLT4-GFP xenografts) | survival, given as IC50 (MOLT4-GFP xenografts; SRB1 at 4 mg/kg vs Control (48 days)) [days] | complement-dependent cytotoxicity (CDC) (CCR9+ lymphocyte) | CCR9 binding in the presence of the ligand CCL25 (CCR9) | binding result [1]
C[C@@H]1C[C@H]2[C@@H]3CCC4=CC(=O)C=C[C@]4(C)[C@@]3(F)[C@@H](O)C[C@]2(C)[C@@]1(O)C(=O)CO [DX, dexamethasone] | 47.7 | 10 | 10 |  |  |  | 
CC[C@]1(O)C[C@H]2CN(CCc3c([nH]c4ccccc34)[C@@](C(=O)OC)(c3cc4c(cc3OC)N(C=O)[C@H]3[C@@](O)(C(=O)OC)[C@H](OC(C)=O)[C@]5(CC)C=CCN6CC[C@]43[C@@H]65)C2)C1 [VX, vincristine] | 67.9 | 10 | 10 |  |  |  | 
B1 | 66.2 | 10 | 10 | 70 | observed | exhibit CCR9 binding in the presence of CCL25 | binds
